Drawing on article PMC4565672, this text covers ratio to parent for 6 substances.

The target of the first assay is HERC2 (endogenous, HEK293 cells) [human (endogenous in HEK293)]. Put plainly: co-immunoprecipitation (FLAG-IP) and Western blotting, band quantification. The conditions noted are these: mean ± SE from five repeated experiments; parent: 1; read off a plot. (In general: A western blot detects proteins with antibodies after separation by electrophoresis.)
Take “FLAG-tagged human LRRK2 (wild type) mutant T1348N [human] / HERC2 (endogenous, HEK293 cells) [human (endogenous in HEK293)] chain 1 T1348N”: the ratio to parent came out at 3.4. With “FLAG-tagged human LRRK2 (wild type) mutant R1398L [human] / HERC2 (endogenous, HEK293 cells) [human (endogenous in HEK293)] chain 1 R1398L”, the ratio to parent came to 1.4. Same read-out and setting: for “FLAG-tagged human LRRK2 (wild type) mutant R1441G [human] / HERC2 (endogenous, HEK293 cells) [human (endogenous in HEK293)] chain 1 R1441G” the value was 2.5.

For another assay, the target named is NEURL4 (endogenous, HEK293 cells) [human (endogenous in HEK293)]. Described as above. The following applies: mean ± SE from five repeated experiments; parent: 1; read off a plot.
Take “FLAG-tagged human LRRK2 (wild type) mutant R1398L [human] / NEURL4 (endogenous, HEK293 cells) [human (endogenous in HEK293)] chain 1 R1398L”: the ratio to parent was found to be 1.8. With “FLAG-tagged human LRRK2 (wild type) mutant T1348N [human] / NEURL4 (endogenous, HEK293 cells) [human (endogenous in HEK293)] chain 1 T1348N”, the ratio to parent was determined as 4.3. Same read-out and setting: the same measure for “FLAG-tagged human LRRK2 (wild type) mutant R1441G [human] / NEURL4 (endogenous, HEK293 cells) [human (endogenous in HEK293)] chain 1 R1441G”: 3.2.
